# Experimental data published in paper PMC6252157 (Molecular neurobiology, 2018).
# T1: adenosine A1 receptor fused to Renilla luciferase (A1R-Rluc) (UniProt P30542 1-326)
# T1 sequence (looked up): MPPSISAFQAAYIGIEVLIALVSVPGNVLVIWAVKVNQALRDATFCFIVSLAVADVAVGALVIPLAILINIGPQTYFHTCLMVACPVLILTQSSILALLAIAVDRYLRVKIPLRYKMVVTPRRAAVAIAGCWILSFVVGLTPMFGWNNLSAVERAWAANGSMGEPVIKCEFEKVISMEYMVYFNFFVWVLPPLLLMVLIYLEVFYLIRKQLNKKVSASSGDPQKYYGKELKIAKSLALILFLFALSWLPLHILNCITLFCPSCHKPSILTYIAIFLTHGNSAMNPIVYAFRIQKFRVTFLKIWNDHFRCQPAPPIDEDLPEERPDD
# B1: dopamine D1 receptor fused to YFP (D1R-YFP) (receptor, UniProt P21728 1-446, looked up)
# chain: MRTLNTSAMDGTGLVVERDFSVRILTACFLSLLILSTLLGNTLVCAAVIRFRHLRSKVTNFFVISLAVSDLLVAVLVMPWKAVAEIAGFWPFGSFCNIWVAFDIMCSTASILNLCVISVDRYWAISSPFRYERKMTPKAAFILISVAWTLSVLISFIPVQLSWHKAKPTSPSDGNATSLAETIDNCDSSLSRTYAISSSVISFYIPVAIMIVTYTRIYRIAQKQIRRIAALERAAVHAKNCQTTTGNGKPVECSQPESSFKMSFKRETKVLKTLSVIMGVFVCCWLPFFILNCILPFCGSGETQPFCIDSNTFDVFVWFGWANSSLNPIIYAFNADFRKAFSTLLGCYRLCPATNNAIETVSINNNGAAMFSSHHEPRGSISKECNLVYLIPHAVGSSEDLKKEEAAGIARPLEKLSPALSVILDYDTDVSLEKIQPITQNGQHPT
# Target: T1, adenosine A1 receptor fused to Renilla …
# Test: FRET or BRET
binder,measurement,value
B1,BRET50,2 ± 1 YFP/Rluc ratio
